Test [1] concerns the target T1, MACH B (Homo sapiens, UniProt Q14790).
T1 construct: a construct encoding only the ORF-B (MACH B) region; expressed in transfected cells; host or cells: SFY526 yeast
Nature of the test: Two-hybrid β-galactosidase expression filter assay in SFY526 yeast, DNA-binding domain hybrid MACH B. To be noted: DNA-binding domain hybrid MACH B (ORF-B region). The text has this: (§1) To isolate proteins interacting with the intracellular domain of the FAS-R, the yeast two-hybrid system was used (Fields and Song, 1989). […] In this system, the genes for the candidate interacting proteins are cloned into separate expression vectors. In one expression vector, the sequence of the one candidate protein is cloned in phase with the sequence of the GAL4 DNA-binding domain to generate a hybrid protein with the GAL4 DNA-binding-domain, and in the other vector, the sequence of the second candidate protein is cloned in phase with the sequence of the GAL4 activation domain to generate a hybrid protein with the GAL4-activation domain. The two hybrid vectors are then co-transformed into a yeast host strain having a lacZ or HIS3 reporter gene under the control of upstream GAL4 binding sites. […]
The yeast two-hybrid test was further applied to evaluate the specificity of binding of MACH to MORT-1, in particular, to define the region in MORT-1 to which MACH binds, as well as to determine which of the MACH ORFs interacts with MORT-1, the procedures being as set forth herein above in Examples 1 and 2. Briefly, various MORT-1 and MACH constructs were prepared for testing the interaction of the proteins encoded by the Gal4 DNA-binding domain and activation domain constructs within transfected SFY526 yeast cells as assessed by the β-galactosidase expression filter assay. […]

The target in test [2] is T2, MORT-1 (Homo sapiens, UniProt Q13158, G32V).
T2 sequence (Q13158 with tags, fused parts or gaps G32V): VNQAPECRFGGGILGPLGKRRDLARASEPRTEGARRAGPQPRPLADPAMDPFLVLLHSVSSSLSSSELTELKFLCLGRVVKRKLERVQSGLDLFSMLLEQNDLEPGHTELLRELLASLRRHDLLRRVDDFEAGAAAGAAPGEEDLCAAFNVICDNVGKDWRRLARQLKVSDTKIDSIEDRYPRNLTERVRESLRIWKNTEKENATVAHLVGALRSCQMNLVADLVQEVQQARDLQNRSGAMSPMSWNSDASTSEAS
Nature of the test: Two-hybrid β-galactosidase expression filter assay in SFY526 yeast, DNA-binding domain hybrid MORT-1. Details: the full-length MORT-1 cDNA was used (MORT 1); expressed in transfected cells; host or cells: SFY526 yeast. To be noted: substance as activation domain hybrid.
Text: as §1, with “sites. Only those transformed host cells (cotransformants) in which the two hybrid proteins are expressed and are capable of interacting with each other, will be capable of expressing the reporter gene.” for “sites.”
The yeast two-hybrid test was further applied to evaluate the specificity of binding of MACH to MORT-1, in particular, to define the region in MORT-1 to which MACH binds, as well as to determine which of the MACH ORFs interacts with MORT-1, the procedures being as set forth herein above in Examples 1 and 2. Briefly, various MORT-1 and MACH constructs were prepared for testing the interaction of the proteins encoded by the Gal4 DNA-binding domain and activation domain constructs within transfected SFY526 yeast cells as assessed by the β-galactosidase expression filter assay. […] In the assay, the development of color was determined, where the greater the color development, the greater the interaction between the constructs encoded by the DNA-binding domain and activation domain; Color development was depicted by symbols, where “+++” and “+” indicate the development of a strong color within 30 and 90 min. of the assay, respectively, and “−−−” indicates the lack of development of color within 24 hrs. of the assay. […]

The test system of test [3] is breast carcinoma MCF7 cells. Nature of the test: Cell death on overexpression of MACH isoforms in MCF7 cells. To be noted: β-galactosidase-expressing cells with apoptopic morphology, 20 h after transfection. The test is classed as cell-based, human. The procedure: To explore the involvement of MACH in cell-death induction, the effect of overexpression of various MACH isoforms on cell viability was examined. The test was performed by transfecting MACH expression vectors together with a β-galactosidase expression vector as a transfection marker into human embryonic kidney 293-EBNA cells and breast carcinoma MCF7 cells.
In brief, 293-EBNA cells, MCF7 human breast carcinoma cells and HeLa HtTA-1 cells were grown in Dulbecco's modified Eagle's minimal essential medium supplemented with 10% fetal calf serum, nonessential amino acids, 100 U/ml penicillin and 100 μg/ml streptomycin. Cell tissue culture dishes (5×10^5 293-EBNA cells, 3×10^5 s MCF7 cells or 3×10^5 HeLa cells in 6-cm dishes) were transiently transfected, using the calcium phosphate precipitation method, with the cDNAs of the indicated proteins together with the β-galactosidase expression vector. In the experiments presented in FIGS. 14A-D and 15, each dish was transfected with 3.5 μg of the indicated MACH construct and 1.5 μg of pSV-β-gal. In the experiments presented in FIGS. 16A-D and 17-19, each dish was transfected with 2.5 μg of the indicated MACH or MORT1 construct (or, as control, empty vector) and 1.5 μg of pSV-β-gal. The cells were rinsed 6 to 10 h after transfection. The 293-EBNA and MCF7 cells were incubated for a further 18 h without additional treatment. The HeLa cells were incubated for 26 h after transfection and-then for 5 h in the presence of either anti-Fas.APO1 antibody (CH11, 0.5 μg/ml) or TNF (100 ng/ml), together with cycloheximide (10 μg/ml). The extent of cell death at the end of the incubation periods was assessed by determination of β-galactosidase expression, as described by Kumar et al, 1994.
In particular, FIGS. 14A-D show the morphology of human embryonic kidney 293-EBNA cells transiently expressing the indicated MACH isoforms. The arrows (FIG. 14B) point to apoptopic cells. Photographs were taken 26 h after transfection. […] Data are from three independent experiments with the 293-EBNA cells and two independent experiments with the MCF7 cells.

B1: MORT-1: Mediator of Receptor-induced Toxicity; protein binding the intracellular domain of FAS-R, SEQ ID NO:2 (protein)
chain: T2 sequence (Q13158 with tags, fused parts or gaps G32V)
Turning to B1, the “development of color (interaction with DNA-binding domain hybrid)” value in test [1] was “+ (“+++” and “+” indicate the development of a strong color within 30 and 90 min. of the assay, respectively)”; in test [2], “+++ (“+++” and “+” indicate the development of a strong color within 30 and 90 min. of the assay, respectively)”.

B2: MACHα1 (C360S): MACHα1 mutant in which the catalytic cysteine Cys360 is replaced by Ser (protein)
chain: MDFSRNLYDIGEQLDSEDLASLKFLSLDYIPQRKQEPIKDALMLFQRLQEKRMLEESNLSFLKELLFRINRLDLLITYLNTRKEEMERELQTPGRAQISAYRVMLYQISEEVSRSELRSFKFLLQEEISKCKLDDDMNLLDIFIEMEKRVILGEGKLDILKRVCAQINKSLLKIINDYEEFSKERSSSLEGSPDEFSNGEELCGVMTISDSPREQDSESQTLDKVYQMKSKPRGYCLIINNHNFAKAREKVPKLHSIRDRNGTHLDAGALTTTFEELHFEIKPHDDCTVEQIYEILKIYQLMDHSNMDCFICCILSHGDKGIIYGTDGQEAPIYELTSQFTGLKCPSLAGKPKVFFIQASQGDNYQKGIPVETDSEEQPYLEMDLSSPQTRYIPDEADFLLGMATVNNCVSYRNPAEGTWYIQSLCQSLRERCPRGDDILTILTEVNYEVSNKDDKKNMGKQMPQPTFTLRKKLVFPSD
For the molecule B2, in test [3], the “cell death of transfected MCF7 cells” value is “No death”.

B3: MACHβ1: MACH isoform, cDNA SEQ ID NO: 4, amino acid SEQ ID NO: 5; lacks the CED3/ICE homology region (protein)
chain: MDFSRNLYDIGEQLDSEDLASLKFLSLDYIPQRKQEPIKDALMLFQRLQEKRMLEESNLSFLKELLFRINRLDLLITYLNTRKEEMERELQTPGRAQISAYRVMLYQISEEVSRSELRSFKFLLQEEISKCKLDDDMNLLDIFIEMEKRVILGEGKLDILKRVCAQINKSLLKIINDYEEFSKERSSSLEGSPDEFSNDFGQSLPNEKQTSGILSDHQQSQFCKSTGESAQTSQH
In the case of B3, the “development of color (interaction with DNA-binding domain hybrid)” value is “+ (“+++” and “+” indicate the development of a strong color within 30 and 90 min. of the assay, respectively)” in test [1]; “+++ (“+++” and “+” indicate the development of a strong color within 30 and 90 min. of the assay, respectively)” in test [2]. The “cell death of transfected MCF7 cells” value in test [3] is on record as “some slight cell death”.

For the origin of these results see US7799901B2, “Modulators of the function of FAS receptors and other proteins” (Yeda Research and Development Co. Ltd., priority 1995, dated 2010).
